The values that follow come from publication PMC2859679 (Journal of molecular biology, 2009).

The series deals with the molecule itself. The series is described as follows: crystal structure.

B1: MhuD (mycobacterial heme utilization, degrader), Rv3592, from Mycobacterium tuberculosis (enzyme)
chain: MPVVKINAIEVPAGAGPELEKRFAHRAHAVENSPGFLGFQLLRPVKGEERYFVVTHWESDEAFQAWANGPAIAAHAGHRANPVATGASLLEFEVVLDVGGTGKTA
As for B1, the binding result was “binds”.
